Among the data in US20210388110A1 (published 2021) are Kd values, retold here.

Changes are numbered by the printed parent chain.

The assay has as its target T1, soluble human CD3ε chain (human, UniProt P07766 23-126, limits assumed).
T1 construct: the text says soluble human CD3ε chain; also called human CD3 epsilon chain
The assay can be described thus: SPR (Biacore).

T1 sequence (P07766 23-126 limits assumed): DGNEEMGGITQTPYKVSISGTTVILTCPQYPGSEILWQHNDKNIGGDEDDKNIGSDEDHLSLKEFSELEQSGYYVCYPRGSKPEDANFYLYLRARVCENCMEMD

B1: TR01H016-E22Hh/none-Hi-Kn010G3/L0000-k0 (antibody, human IgG1, kappa, L234A L235A, N297A)
heavy: QVQLVESGGGLVQPGRSLRLSCAASGFTFSNAWMHWVRQAPGKGLEWVAQIKGKSNNYATYYAESVKGRFTISRADSKNSIYLQMNSLKTEDTAVYYCRYVHYSYSYGVDIWGQGTTVTVSSASTKGPSVFPLAPSSKSTSGGTAALGCLVKDYFPEPVTVSWNSGALTSGVHTFPAVLQSSGLYSLSSVVTVPSSSLGTQTYICNVNHKPSNTKVDKKVEPKSCDKTHTCPPCPAPEAAGGPSVFLFPPKPKDTLMISRTPEVTCVVVDVSHEDPEVKFNWYVDGVEVHNAKTKPREEQYASTYRVVSVLTVLHQDWLNGKEYKCKVSNKALPAPIEKTISKAKGQPREPQVYTLPPSRCELTKNQVSLSCAVKGFYPSDIAVEWESNGQPENNYKTTPPVLDSDGSFFLVSKLTVDKSRWQQGNVFSCSVMHEALHNHYTQKSLSLSPDYKDDDDK
chain: EPKSSDKTHTCPPCPAPELLGGPSVFLFPPKPKDTLMISRTPEVTCVVVDVSHEDPEVKFNWYVDGVEVHNAKTKPREEQYNSTYRVVSVLTVLHQDWLNGKEYKCKVSNKALPAPIEKTISKAKGQPREPQVCTLPPSRDELTKNQVSLWCLVKGFYPSDIAVEWESNGQPENNYKTTPPVLDSDGSFFLYSKLTVDKSRWQQGNVFSCSVMHEALHNRYTQKSLSLSP
light: DIVMTQSPLSLPVTPGEPASISCRSSQSLVHSNRNTYLHWYQQKPGQAPRLLIYKVSNRFSGVPDRFSGSGSGTDFTLKISRVEAEDVGVYYCGQGTQVPYTFGQGTKLEIKRTVAAPSVFIFPPSDEQLKSGTASVVCLLNNFYPREAKVQWKVDNALQSGNSQESVTEQDSKDSTYSLSSTLTLSKADYEKHKVYACEVTHQGLSSPVTKSFNRGEC
notes: single-arm
B1 registered a Kd of 36.9 nM.

B2: TR01H040-E22Hh/none-Hi-Kn010G3/L0200-k0 (antibody, human IgG1, kappa, L234A L235A, N297A)
heavy: B1 heavy with G53D, N56Q, Y105A, I111A
chain: B1 chain
light: B1 light with S25P, L29P
notes: single-arm
Molecule B2 registered a Kd of 28.7 nM.

B3: TR01H018-E22Hh/none-Hi-Kn010G3/L0000-k0 (antibody, human IgG1, kappa, L234A L235A, N297A)
heavy: B1 heavy with R16G, Y105A
chain: B1 chain
light: B1 light
notes: single-arm
B3 came in with a Kd of 69.3 nM.

B4: TR01H038-E22Hh/none-Hi-Kn010G3/L0000-k0 (antibody, human IgG1, kappa, L234A L235A, N297A)
heavy: B1 heavy with G53D, Y105A
chain: B1 chain
light: B1 light
notes: single-arm
Molecule B4 yielded a Kd of 12.4 nM. This Kd is about 5.6-fold lower than that of the molecule before.

B5: TR01H040-E22Hh/none-Hi-Kn010G3/L0208-k0 (antibody, human IgG1, kappa, L234A L235A, N297A)
heavy: B1 heavy with G53D, N56Q, Y105A, I111A
chain: B1 chain
light: B1 light with L29P, S61W, G94Y
notes: single-arm
The molecule B5 had a Kd of 4.16 nM.

B6: TR01H040-E22Hh/none-Hi-Kn010G3/L0205-k0 (antibody, human IgG1, kappa, L234A L235A, N297A)
heavy: B1 heavy with G53D, N56Q, Y105A, I111A
chain: B1 chain
light: B1 light with L29P, S61W
notes: single-arm
Consider B6, for which the Kd worked out at 34.2 nM.

B7: TR01H026-E22Hh/none-Hi-Kn010G3/L0000-k0 (antibody, human IgG1, kappa, L234A L235A, N297A)
heavy: B1 heavy with R16G, G53S, N56Q, Y105A
chain: B1 chain
light: B1 light
notes: single-arm
The molecule B7 returned a Kd of 51.2 nM.

B8: TR01H040-E22Hh/none-Hi-Kn010G3/L0209-k0 (antibody, human IgG1, kappa, L234A L235A, N297A)
heavy: B1 heavy with G53D, N56Q, Y105A, I111A
chain: B1 chain
light: B1 light with L29P, L38I, G94Y
notes: single-arm
B8 gave a Kd of 4.25 nM. This Kd lies about 12-fold lower than the previous one.

B9: TR01H040-E22Hh/none-Hi-Kn010G3/L0011-k0 (antibody, human IgG1, kappa, L234A L235A, N297A)
heavy: B1 heavy with G53D, N56Q, Y105A, I111A
chain: B1 chain
light: B1 light with S28P
notes: single-arm
On to B9, for which binding was put at a Kd of 34.8 nM.

B10: TR01H025-E22Hh/none-Hi-Kn010G3/L0000-k0 (antibody, human IgG1, kappa, L234A L235A, N297A)
heavy: B1 heavy with G53S, N56Q, Y105A
chain: B1 chain
light: B1 light
notes: single-arm
B10: binding was characterised by a dissociation constant (Kd) of 38.6 nM.

B11: TR01H040-E22Hh/none-Hi-Kn010G3/L0204-k0 (antibody, human IgG1, kappa, L234A L235A, N297A)
heavy: B1 heavy with G53D, N56Q, Y105A, I111A
chain: B1 chain
light: B1 light with L29P, S61R
notes: single-arm
Take B11: the Kd is 22.1 nM. This Kd is about 1.7-fold lower than that of the molecule before.

B12: TR01H040-E22Hh/none-Hi-Kn010G3/L0215-k0 (antibody, human IgG1, kappa, L234A L235A, N297A)
heavy: B1 heavy with G53D, N56Q, Y105A, I111A
chain: B1 chain
light: B1 light with S28P, L29P, L38I
notes: single-arm
B12 gave a Kd of 33.7 nM.

B13: TR01H036-E22Hh/none-Hi-Kn010G3/L0000-k0 (antibody, human IgG1, kappa, L234A L235A, N297A)
heavy: B1 heavy with Y105A, I111Y
chain: B1 chain
light: B1 light
notes: single-arm
Consider B13, for which the Kd amounted to 65 nM.

B14: TR01H040-E22Hh/none-Hi-Kn010G3/L0207-k0 (antibody, human IgG1, kappa, L234A L235A, N297A)
heavy: B1 heavy with G53D, N56Q, Y105A, I111A
chain: B1 chain
light: B1 light with L29P, S61R, G94Y
notes: single-arm
B14: binding was put at a Kd of 2.6 nM.

B15: TR01H033-E22Hh/none-Hi-Kn010G3/L0000-k0 (antibody, human IgG1, kappa, L234A L235A, N297A)
heavy: B1 heavy with G53S, N56Q, Y105A, I111Y
chain: B1 chain
light: B1 light
notes: single-arm
Molecule B15 registered a Kd of 48.8 nM.

B16: TR01H040-E22Hh/none-Hi-Kn010G3/L0201-k0 (antibody, human IgG1, kappa, L234A L235A, N297A)
heavy: B1 heavy with G53D, N56Q, Y105A, I111A
chain: B1 chain
light: B1 light with S28P, L29P
notes: single-arm
For the molecule B16, the affinity, expressed as Kd, was 28.1 nM.

B17: TR01H040-E22Hh/none-Hi-Kn010G3/L0210-k0 (antibody, human IgG1, kappa, L234A L235A, N297A)
heavy: B1 heavy with G53D, N56Q, Y105A, I111A
chain: B1 chain
light: B1 light with L29P, N35W, G94Y
notes: single-arm
The molecule B17 displayed a Kd of 5.06 nM. This Kd is about 5.6-fold lower than that of the molecule before.

B18: TR01H040-E22Hh/none-Hi-Kn010G3/L0212-k0 (antibody, human IgG1, kappa, L234A L235A, N297A)
heavy: B1 heavy with G53D, N56Q, Y105A, I111A
chain: B1 chain
light: B1 light with S25P, L29P, G94Y
notes: single-arm
In turn, B18 returned a Kd of 2.17 nM.

B19: TR01H040-E22Hh/none-Hi-Kn010G3/L0211-k0 (antibody, human IgG1, kappa, L234A L235A, N297A)
heavy: B1 heavy with G53D, N56Q, Y105A, I111A
chain: B1 chain
light: B1 light with S28P, L29P, G94Y
notes: single-arm
The molecule B19 gave a Kd of 3.22 nM. This Kd and that of the molecule before are within 1.5-fold of each other.

B20: TR01H040-E22Hh/none-Hi-Kn010G3/L0213-k0 (antibody, human IgG1, kappa, L234A L235A, N297A)
heavy: B1 heavy with G53D, N56Q, Y105A, I111A
chain: B1 chain
light: B1 light with L29P, L38I, S61R
notes: single-arm
Molecule B20 displayed a Kd of 20.1 nM. Against the preceding molecule, the Kd is about 6.2-fold higher.

B21: TR01H027-E22Hh/none-Hi-Kn010G3/L0000-k0 (antibody, human IgG1, kappa, L234A L235A, N297A)
heavy: B1 heavy with R16G, G53S, N56Q, Y105A, I111A
chain: B1 chain
light: B1 light
notes: single-arm
Molecule B21 yielded a Kd of 69.5 nM.

B22: TR01H040-E22Hh/none-Hi-Kn010G3/L0202-k0 (antibody, human IgG1, kappa, L234A L235A, N297A)
heavy: B1 heavy with G53D, N56Q, Y105A, I111A
chain: B1 chain
light: B1 light with L29P, N35W
notes: single-arm
Take B22: the Kd was 61.9 nM.

B23: TR01H028-E22Hh/none-Hi-Kn010G3/L0000-k0 (antibody, human IgG1, kappa, L234A L235A, N297A)
heavy: B1 heavy with L11V, R16G, G53S, N56Q, Y105A
chain: B1 chain
light: B1 light
notes: single-arm
B23: the Kd turned out to be 48 nM.

B24: TR01H030-E22Hh/none-Hi-Kn010G3/L0000-k0 (antibody, human IgG1, kappa, L234A L235A, N297A)
heavy: B1 heavy with L11V, Y105A
chain: B1 chain
light: B1 light
notes: single-arm
As to B24, the affinity, expressed as Kd, was 65.4 nM.

B25: TR01H040-E22Hh/none-Hi-Kn010G3/L0214-k0 (antibody, human IgG1, kappa, L234A L235A, N297A)
heavy: B1 heavy with G53D, N56Q, Y105A, I111A
chain: B1 chain
light: B1 light with S28P, L29P, S61R
notes: single-arm
B25 came in with a Kd of 20.2 nM.

B26: TR01H040-E22Hh/none-Hi-Kn010G3/L0206-k0 (antibody, human IgG1, kappa, L234A L235A, N297A)
heavy: B1 heavy with G53D, N56Q, Y105A, I111A
chain: B1 chain
light: B1 light with L29P, G94Y
notes: single-arm
For B26, the Kd amounted to 2.9 nM.

B27: TR01H037-E22Hh/none-Hi-Kn010G3/L0000-k0 (antibody, human IgG1, kappa, L234A L235A, N297A)
heavy: B1 heavy with H35P, Y105A
chain: B1 chain
light: B1 light
notes: single-arm
Regarding B27, binding was characterised by a dissociation constant (Kd) of 6.93 nM.

B28: TR01H029-E22Hh/none-Hi-Kn010G3/L0000-k0 (antibody, human IgG1, kappa, L234A L235A, N297A)
heavy: B1 heavy with A23S, Y105A
chain: B1 chain
light: B1 light
notes: single-arm
For B28, binding was put at a Kd of 67 nM.

B29: TR01H032-E22Hh/none-Hi-Kn010G3/L0000-k0 (antibody, human IgG1, kappa, L234A L235A, N297A)
heavy: B1 heavy with G53S, N56Q, Y105A, I111A
chain: B1 chain
light: B1 light
notes: single-arm
For B29, the affinity, expressed as Kd, was 57.3 nM.

B30: TR01H019-E22Hh/none-Hi-Kn010G3/L0000-k0 (antibody, human IgG1, kappa, L234A L235A, N297A)
heavy: B1 heavy with N56Q, Y105A
chain: B1 chain
light: B1 light
notes: single-arm
B30 had a Kd of 68.5 nM.

B31: TR01H020-E22Hh/none-Hi-Kn010G3/L0000-k0 (antibody, human IgG1, kappa, L234A L235A, N297A)
heavy: B1 heavy with E64P, Y105A
chain: B1 chain
light: B1 light
notes: single-arm
As for B31, the Kd was 64.8 nM.

B32: TR01H040-E22Hh/none-Hi-Kn010G3/L0203-k0 (antibody, human IgG1, kappa, L234A L235A, N297A)
heavy: B1 heavy with G53D, N56Q, Y105A, I111A
chain: B1 chain
light: B1 light with L29P, L38I
notes: single-arm
In turn, B32 came in with a Kd of 32.4 nM.

B33: TR01H017-E22Hh/none-Hi-Kn010G3/L0000-k0 (antibody, human IgG1, kappa, L234A L235A, N297A)
heavy: B1 heavy with R16G, G53A, S104G, Y105A, S106Y
chain: B1 chain
light: B1 light
notes: single-arm
B33 showed a Kd of 35 nM.

B34: TR01H039-E22Hh/none-Hi-Kn010G3/L0000-k0 (antibody, human IgG1, kappa, L234A L235A, N297A)
heavy: B1 heavy with G53D, N56Q, Y105A
chain: B1 chain
light: B1 light
notes: single-arm
B34 came in with a Kd of 26.1 nM.
